Measured values published in the supplement of paper PMC10567573.
± gives the standard deviation.

Test: protein stability index of a GFP-peptide fusion (GPS, HEK-293T) (PSI 1-6); higher = more stable
[1] = treatment: DMSO, c terminus: a fixed tail appended
[2] = treatment: MLN4924 1 uM, 8 h, c terminus: a fixed tail appended
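Also: 24-mer peptide tiles fused after GFP, lentivirally expressed, FACS-sorted into six equal bins by GFP/DsRed ratio, decoded by Illumina sequencing, PSI is the read-weighted mean bin number.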

Row | Sequence | protein stability index [1] | protein stability index [2] | protein stability index (treatment: DMSO, c terminus: native) | protein stability index (treatment: MLN4924 1 uM, 8 h, c terminus: native)
1 | PPLRNYFLEEDNYKNIKRPPGDIM [USP39] | 3.19 ± 0.19 | 3.37 ± 0.17 | – | –
2 | PSDPPAMSPGPLDALSSPTSVQEA [C2CD2L] | 5.54 ± 0.18 | 5.42 ± 0.2 | – | –
3 | KEIESQGSIPGFLISSGMSSHKQG [TAF7L] | 4.42 ± 0.2 | 4.11 ± 0.48 | – | –
4 | GLLWLLLGSAGAQYEKYSFRGFPP [P3H4] | 3.08 ± 0.098 | 3.71 ± 0.62 | – | –
5 | FPNQKSEAAEPPKTPPSSCDSTNA [KMT5A] | 5.52 ± 0.13 | 5.53 ± 0.2 | – | –
6 | SLGYKEIRKGESRSEALAVDGAGK [CHGA] | 5.03 ± 0.52 | 4.95 ± 0.31 | – | –
7 | PYTPSPSSSRPISPGLSYASHTVG [CCDC6] | 3.84 ± 0.17 | 3.69 ± 0.19 | – | –
8 | YYPRVQHYRELLDSLPMDAYTHGC [GDAP1] | 2.21 ± 0.17 | 2.32 ± 0.23 | – | –
9 | HTFKTRFTQPLLPAFTVWCGSFQV [FSD1] | 3.1 ± 0.55 | 2.69 ± 1.1 | – | –
10 | EYEGGHIKTAVNLPLERDAESFLL [CDC25B] | 3.91 ± 0.16 | 3.97 ± 0.21 | – | –
11 | TYAMGHLIQRKKVHVFGDELSLVT [TNFSF13B] | 2.32 ± 0.3 | 2.42 ± 0.21 | – | –
12 | VDRLPGLQGALDLLAVLCVDGSGR [ZSWIM9] | 2.01 ± 0.34 | 2.27 ± 0.24 | – | –
13 | RMAAPRAEALFDFTGNSKLELNFK [NCF4] | 3.33 ± 0.2 | 3.46 ± 0.28 | – | –
14 | AFYRLADLFGWSQLIYNHITTRVN [ADD1] | 3.25 ± 0.54 | 2.88 ± 0.35 | – | –
15 | RRMFSSLFQFSNCSQGQQLATFSS [CCDC3] | 2.31 ± 0.2 | 2.34 ± 0.98 | – | –
16 | PDSFYELKSQPLPLRSSLPISLQA [TFE3] | 3.14 ± 0.15 | 3.26 ± 0.29 | – | –
17 | LLTITKAHSNAISNCCFTFSGHFL [WDR88] | 3.12 ± 1.1 | 2.59 ± 0.48 | – | –
18 | LMELDMAMEPDRKAAVSHWQQQSY [CTNNB1] | 3.11 ± 0.19 | 3.33 ± 0.37 | – | –
19 | MRPPMPPHGQYGGHHQGMPGYLPG [ZNF207] | 3.23 ± 0.3 | 3.29 ± 0.18 | – | –
20 | PREHHGRGGMLSASAETLPAGFRV [PPFIA4] | 3.5 ± 0.44 | 3.95 ± 0.076 | – | –
21 | AFASGSDDATCRLYDLRADREVAI [GNB5] | 3.12 ± 0.22 | 2.95 ± 0.11 | – | –
22 | NNSNLQRMGSSESTDSGFCLDSPG [CDC25A] | 4.43 ± 0.92 | 4.8 ± 0.3 | – | –
23 | TPMLNPLIYTLKNAEMKSAMRKLW [OR4A15] | 2.11 ± 0.32 | 2.04 ± 0.16 | – | –

Row | Sequence | protein stability index [1] | protein stability index [2] | protein stability index (treatment: DMSO, c terminus: native) | protein stability index (treatment: MLN4924 1 uM, 8 h, c terminus: native)
24 | EMLTGQERVALANRKRECGNAHYQ [FKBP8] | 3.71 ± 0.23 | 3.86 ± 0.27 | – | –
25 | DPTWIESPKTNGHIENGPFSLEQQ [SRPK2] | 4.78 ± 0.11 | 4.75 ± 0.22 | – | –
26 | LMLELKSLQEEPVEGFRITLVDES [UBE2R2] | 2.6 ± 0.39 | 2.77 ± 0.17 | – | –
27 | MTWSPLACGIVSGKYDSGIPPYSR [KCNAB2] | 3.19 ± 0.54 | 2.92 ± 0.3 | – | –
28 | DVRLLPRRLPLAFRDATSAPLRKL [DYRK1B] | 3.17 ± 0.27 | 3.02 ± 0.15 | – | –
29 | PEQALDTPGDCPPGRRDEDAGEGI [TMEM175] | 5.53 ± 0.23 | 5.43 ± 0.17 | – | –
30 | VHRLDLILCNKTAYQEVFKPENIS [SMG5] | 2.12 ± 0.48 | 2.15 ± 0.4 | – | –
31 | PNYEFKLGKITFIRNSRPLVKKVE [UFD1] | 2.62 ± 0.5 | 2.77 ± 0.35 | – | –
32 | MERARDRLHLRRTTEQHVPEVEVQ [SNURF] | 4.77 ± 0.2 | 4.72 ± 0.06 | – | –
33 | GSSGASDQDTLAPLPHPGAAPWPM [DVL3] | 4.2 ± 0.15 | 4.3 ± 0.09 | – | –
34 | CRKFPRDMKAMSPENQEYFEKHRW [RHOBTB2] | 3.22 ± 0.2 | 3.18 ± 0.29 | – | –
35 | SQSFSLYVKYQVAIHQDPPDECGK [ATE1] | 2.75 ± 0.37 | 2.5 ± 0.35 | – | –
36 | AKDLRAPPEQGKIFIARRSLLDEL [SOAT1] | 3.23 ± 0.37 | 3.15 ± 0.33 | – | –
37 | LREIRMLKQLKHPNLVNLIEVFRR [CDKL4] | 2.31 ± 0.3 | 2.13 ± 0.67 | – | –
38 | GKDQGINIRQKVKELVEFAQDDDR [CLINT1] | 5.15 ± 0.42 | 4.91 ± 0.28 | – | –
39 | GDHRSPASAQKFSSRSTVPTPAKR [NET1] | 4.75 ± 0.38 | 5.05 ± 0.23 | – | –
40 | NSTSYSNYYRTWNVVVHDWLYYYA [SOAT1] | 2.63 ± 0.52 | 2.56 ± 0.55 | – | –
41 | DEGRLVLEFSLLSYAFGKFPTVVW [SOAT1] | 2.33 ± 0.68 | 3.07 ± 0.14 | – | –
42 | FGEDGIFRHDRLRFRDFVDALEDS [PBXIP1] | 3.29 ± 0.32 | 3.58 ± 0.46 | – | –
43 | SFQLEISGFLKEMACPYSVLISGD [FAM98B] | 2.56 ± 1.3 | 2.11 ± 0.74 | – | –
44 | GSGADSEPARHIFSFSWLNSLNE [TRIM55] | – | – | 3.53 ± 0.41 | 3.53 ± 0.26
45 | LQKKLDNLQCLYCEKTFRDKNTLK [ZNF277] | 2.64 ± 0.25 | 2.86 ± 0.3 | – | –
46 | FTRNEFNLESKSTIGVEFATRSIQ [RAB11A] | 2.97 ± 0.3 | 3.2 ± 0.21 | – | –

Row | Sequence | protein stability index [1] | protein stability index [2] | protein stability index (treatment: DMSO, c terminus: native) | protein stability index (treatment: MLN4924 1 uM, 8 h, c terminus: native)
47 | TDLEMQIEGLKEELAYLRKNHEEE [KRT16] | 5.24 ± 0.098 | 5.45 ± 0.23 | – | –
48 | HYAFRIFDFDDDGTLNREDLSRLV [CIB1] | 2.55 ± 0.24 | 2.78 ± 0.31 | – | –
49 | HPRALPPDARPHRRPHELLPVGGR [HAGHL] | 4.48 ± 0.12 | 4.33 ± 0.23 | – | –
50 | AKVNILLVENDQQLQKILSIPQSS [ACSBG2] | 2.21 ± 0.17 | 2.07 ± 0.18 | – | –
51 | FKSLDKKNDGRIDAQEIMQSLRDL [SLC25A25] | 4 ± 0.2 | 3.92 ± 0.34 | – | –
52 | HNNNNNCEENEQSLPPPAGLNSSW [BNIP3L] | 4.96 ± 0.17 | 5.09 ± 0.078 | – | –
53 | IITSRILVDQVTGVSRGVGFIRFD [ELAVL3] | 2.42 ± 0.53 | 2.53 ± 0.28 | – | –
54 | TMIQQQNMQQPMNVMTQSFGAVNL [CLINT1] | 2.69 ± 0.39 | 2.94 ± 0.39 | – | –
55 | MAEISRIQYEMEYTEGISQRMRVP [MFF] | 2.67 ± 0.3 | 2.79 ± 0.6 | – | –
56 | SFQLFVEGYKDADYWLRRFEAEPL [PI4K2A] | 1.92 ± 0.41 | 2.35 ± 0.25 | – | –
57 | LVVPNKGYSSLDQSPDEKPLVALD [FAM219A] | 4.45 ± 0.17 | 4.42 ± 0.25 | – | –
58 | ITAGAHRLWSHRSYKARLPLRLFL [SCD] | 2.6 ± 0.63 | 2.47 ± 0.64 | – | –
59 | LLCNAITGITLLRVKFKSQQHRQG [PTGFR] | 2.38 ± 0.46 | 2.21 ± 0.77 | – | –
60 | SPVSRNRLAQVKRKILVLDLDETL [CTDNEP1] | 2.6 ± 0.35 | 2.77 ± 0.36 | – | –
61 | AKPNMIISVNGDVITIKSESTFKN [FABP4] | 3 ± 0.56 | 3.03 ± 0.66 | – | –
62 | FVTYVFFVFFVLLNMFLAIINDTY [PKD2L1] | 2.3 ± 0.47 | 2.26 ± 0.45 | – | –
63 | REHELLCRADHGLLLERAAAGSPR [ISL2] | 3.82 ± 0.31 | 3.89 ± 0.062 | – | –
64 | DFPDILEQQRKLETYLQNHFAEEE [TENT5C] | 4.45 ± 0.27 | 4.56 ± 0.22 | – | –
65 | LKIELETYKLKCKALQEENRDLRK [CCDC6] | 4.25 ± 0.29 | 4.63 ± 0.23 | – | –
66 | DDDAQILPSPVQACSEDSLFLRCS [DRICH1] | 4.17 ± 0.16 | 4.02 ± 0.37 | – | –
67 | WQSESLPVSLSASQSWHTESLPVS [BCL2L13] | 3.26 ± 0.23 | 3.35 ± 0.14 | – | –
68 | HWACKRNHGQVVSYLLKSGADKEI [ANKRD40] | 2.59 ± 0.24 | 2.66 ± 0.28 | – | –
69 | TQIEDATEKLKANAESSKTWLKGK [TRIM14] | 4.95 ± 0.37 | 5 ± 0.18 | – | –

Row | Sequence | protein stability index [1] | protein stability index [2] | protein stability index (treatment: DMSO, c terminus: native) | protein stability index (treatment: MLN4924 1 uM, 8 h, c terminus: native)
70 | LPPQYVDDVISRIDRMFPEMSIHL [MED27] | 2.19 ± 0.087 | 2.29 ± 0.29 | – | –
71 | VNARQKQGIYEEYEDIRRENPVGT [PTPN9] | 4.83 ± 0.37 | 4.96 ± 0.29 | – | –
72 | DEVARRWGKRKNKPKMNYEKLSRG [ETS2] | 4.11 ± 0.35 | 4.31 ± 0.52 | – | –
73 | NLLNMAYGVKSPLSLIARFSPIAI [ELAVL3] | 2.83 ± 0.58 | 2.81 ± 0.65 | – | –
74 | EAEALAGTGLVLDEQLNEFHCLWD [HDAC6] | 4.29 ± 0.061 | 4.15 ± 0.45 | – | –
75 | PGPQDPEESASRQRFGEALQDQEK [ELOA2] | 5.53 ± 0.29 | 5.68 ± 0.16 | – | –
76 | YSFGSGGGYGSSFGGVDGLLAGGE [KRT17] | 2.84 ± 0.13 | 2.9 ± 0.098 | – | –
77 | IHDALLEAVTCGNTEVPARNLYAY [PTPRD] | 2.29 ± 0.35 | 2.39 ± 0.14 | – | –
78 | MVQLDSIEDLEVTCTWKLPTLAKF [PRAME] | 2.6 ± 0.45 | 2.75 ± 0.64 | – | –
79 | EEENAQLRGALQQGEAFQRALESE [PBXIP1] | 5.43 ± 0.32 | 5.39 ± 0.49 | – | –
80 | KAHSGRIPISLETQAHIQECKHPS [MCOLN1] | 4.5 ± 0.12 | 4.65 ± 0.14 | – | –
81 | TLEEIQKHNHSKSTWLILHHKVYD [CYB5A] | 2.37 ± 0.19 | 2.58 ± 0.24 | – | –
82 | FKLADPDEVARRWGKRKNKPKMNY [ETS2] | 3.48 ± 0.48 | 3.67 ± 0.13 | – | –
83 | PVANSGTKPKTTAIQGISEKEKAE [DLC1] | 5.51 ± 0.28 | 5.68 ± 0.28 | – | –
84 | FGNSEKPETMTCRLSNNQRYLFLD [ZFYVE21] | 2.44 ± 0.42 | 2.1 ± 0.54 | – | –
85 | TLTKQDTMLKAMFSGRMEVLTDSE [KCTD10] | 4.09 ± 0.26 | 4.32 ± 0.2 | – | –
86 | LAAPSLHVKEQLPCAGLNCQALDA [TLE6] | 3.92 ± 0.25 | 3.97 ± 0.28 | – | –
87 | TLGEQGLPHQSHRQRSSLAKINIV [SCNN1D] | 3.27 ± 0.28 | 3.33 ± 0.1 | – | –
88 | VQRHLYLQDVIMQVADVPEKPRVP [ZNF511] | 2.8 ± 0.2 | 2.9 ± 0.29 | – | –
89 | MSVDPACPQSLPCFEASDCKESSP [NANOGP8] | 5.44 ± 0.23 | 5.41 ± 0.33 | – | –
